Entries after “also recorded” stand apart in the source; their conditions may differ.
Experiments:
EGFRm NSCLC = conditions: ATLANTIC trial, comparison for EGFRm NSCLC; cited from earlier work
[1] = GLP 5-week repeat IV infusion toxicity study in cynomolgus monkeys; type: in vivo
Protocol: (§1) Mouse and cynomolgus monkey were selected as pharmacologically relevant species for evaluation of the toxicity of oleclumab. […] Systemic and local toxicities of oleclumab were evaluated in Good Laboratory Practice (GLP) toxicity studies in CD-1 mice (5-week, repeat intravenous [IV] bolus dose, once every 4 days, total 9 doses) at 0 mg/kg, 100 mg/kg or 200 mg/kg and cynomolgus monkeys (5-week, repeat IV 30-minute infusion dose, once weekly, total 5 doses) at 0 mg/kg, 30.5 mg/kg, 103.7 or 300.7 mg/kg.

[2] = system: exogenous antigen (KLH) response; assay: single dose cynomolgus monkey study: exogenous antigen (KLH) response; type: in vivo, cynomolgus monkeys; conditions: single IV 1, 10 or 107.8 mg/kg
Protocol: (§2) Five male cynomolgus monkeys were administered a single IV bolus dose of oleclumab at a dose of 0 mg/kg, 1 mg/kg, 10 mg/kg or 107.8 mg/kg. Serum was collected prior to the first dose at 0.08, 0.5, 2, 8 and 24 hours and 2, 3, 5, 7, 10, 14, 21, 28 and 35 days post dosing.
To determine immune modulation, the exogenous antigen (KLH) response was measured. The exogenous antigen (KLH) response was determined by first immunizing the monkeys on day 1 with adjuvant free KLH. KLH T cell-dependent antibody response (TDAR) was conducted on days 7, 8, 11, 15, 22, 29, and 36. Ex vivo KLH stimulation of PBMC IFN-γ and IL-2 ELISPOT was determined on days 1, 4, 8, 7, 15, and 22.

[3] = system: endogenous pathogen response (EBV, CMV); assay: single dose cynomolgus monkey study: endogenous pathogen response; type: in vivo, cynomolgus monkeys; conditions: single IV 1, 10 or 107.8 mg/kg
Protocol: as §2
The endogenous pathogen response was also investigated by endogenous pathogen verification. Endogenous pathogen antibodies were measured using chemiluminescent ELISA on days 1, 8, 14, 15, and 29 and endogenous pathogen T cell IFN-γ ELISPOT was measured on days −14 and 29. LCV (monkey homologue of EBV) was detectable at low levels in most cynomolgus monkeys (FIG. 4).

[4] = system: blood or peripheral blood mononuclear cell from healthy donors; assay: human in vitro cytokine release assays; type: cell-based; conditions: in solution or immobilized on plastic wells by dry-coating
Protocol: The ability of oleclumab (alone or in combination with durvalumab) to induce cytokine release was evaluated in human in vitro assays using blood or peripheral blood mononuclear cell from healthy donors.

CD73 [5] = target: T1, CD73 (Homo sapiens, UniProt P21589); assay: Phase 1 study, pharmacodynamics (soluble, T cell and tumor CD73); type: in vivo; conditions: for CD73 surface expression on peripheral T cells (MFI, percent CD73+ CD4 and CD8 cells): human
T1 construct: from tissue; host or cells: patients' serum, peripheral T cells and tumour biopsies
T1 sequence (P21589 27-549): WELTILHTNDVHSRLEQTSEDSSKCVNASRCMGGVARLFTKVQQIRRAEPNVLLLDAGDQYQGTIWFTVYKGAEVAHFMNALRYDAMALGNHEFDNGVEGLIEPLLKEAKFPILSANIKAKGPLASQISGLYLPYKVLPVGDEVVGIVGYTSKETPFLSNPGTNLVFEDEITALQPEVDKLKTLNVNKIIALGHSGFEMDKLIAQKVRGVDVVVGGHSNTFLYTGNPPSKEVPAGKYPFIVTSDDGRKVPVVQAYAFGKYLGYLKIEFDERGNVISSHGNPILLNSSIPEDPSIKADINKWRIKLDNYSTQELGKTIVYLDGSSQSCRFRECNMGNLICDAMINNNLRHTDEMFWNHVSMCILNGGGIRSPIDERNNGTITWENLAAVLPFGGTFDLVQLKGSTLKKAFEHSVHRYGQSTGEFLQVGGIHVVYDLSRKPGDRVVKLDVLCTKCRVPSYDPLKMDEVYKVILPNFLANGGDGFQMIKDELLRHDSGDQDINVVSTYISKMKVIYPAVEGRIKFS
Protocol: (§3) Safety was assessed by the presence of adverse events (AEs), serious adverse events (SAEs), DLTs, and changes from baseline in laboratory parameters, vital signs, and electrocardiogram results. The endpoints for assessment of antitumor activity included objective response (OR), disease control (DC), duration of response (DoR), progression-free survival (PFS), and overall survival (OS). RECIST v1.1 was used for assessment of tumor response. Pharmacokinetic parameters included, but were not limited to, maximum observed concentration, area under the concentration time curve, clearance, and terminal half-life. The endpoints for assessment of immunogenicity of oleclumab and durvalumab included the number and percentage of subjects who developed detectable anti-drug antibodies and the endpoints for assessment of pharmacodynamic activity included assessment of target expression (e.g., CD73, PD-L1) in tumor biopsy specimens.
(§4) In the oleclumab monotherapy dose-escalation arm, sequential cohorts of 3 to 6 subjects each received 1 of 4 dose levels of oleclumab (5, 10, 20, or 40 mg/kg) via IV infusion Q2W unless the maximum tolerated dose (MTD) was reached before all dose-escalation cohorts were completed (FIG. 8). In the oleclumab/durvalumab combination therapy dose-escalation arm, sequential cohorts of 3 to 6 subjects each received 1 of 4 dose levels of oleclumab (5, 10, 20, or 40 mg/kg) and a single dose level of 10 mg/kg durvalumab via IV infusion Q2W, unless the MTD was reached before all dose-escalation cohorts were completed (FIG. 8). If the MTD of oleclumab was exceeded at the 5 mg/kg dose level in the monotherapy or combination therapy arm, a lower dose level of 2 mg/kg oleclumab was explored in that arm.

[6] = GLP 5-week repeat IV bolus dose toxicity study in CD-1 mice; type: in vivo
Protocol: as §1

CD73 [7] = target: T1, CD73; assay: pharmacokinetic/pharmacodynamic model and human dose prediction; conditions: determined from tumor suppression data in syngeneic mice
Source text: A two-compartment model with linear and target-mediated drug disposition clearance was used to adequately describe the MEDI9447 serum concentration profiles. This model was used to describe the monkey pharmacokinetic data and then resulting parameters were allometrically scaled to humans to predict doses using simulation. (See Example 2.)
FIGS. 6A and 6B show cynomolgus pharmacokinetic modeling and human dose prediction. Cynomolgus serum MEDI9447 concentration profiles (FIG. 6A) were described adequately all three different dose levels by a non-linear model shown schematically in (FIG. 5). Following allometric scaling of the pharmacokinetics parameters from this model, human serum concentration profiles were simulated (FIG. 6B). […] (See Example 2.)
Oleclumab dose selection was based on nonclinical data and clinical safety margins based on nonclinical safety data as described above for mice and monkeys. The pharmacologically driven starting dose level of 5 mg/kg oleclumab was anticipated to have 98% to 91% saturation of CD73 in the first dosing interval (peak and trough, respectively). […] The dose-escalation scheme in this study was designed to achieve higher and more sustained suppression of CD73 target, while maintaining adequate safety margins. […]

[8] = Phase 1 study, pharmacokinetics and immunogenicity of oleclumab; type: in vivo; conditions: human
Protocol: as §3, §4
The following PK data is based on a total of 97 subjects following treatment with oleclumab 5 to 40 mg/kg Q2W administered either as monotherapy (n=40) or in combination with durvalumab at 10 mg/kg Q2W (n=57). […] Serum exposures were similar when oleclumab was administered either alone or in combination with durvalumab.

[9] = cynomolgus monkey, in vivo, 300.7 mg/kg

Substance: durvalumab: antibody that selectively binds PD-L1 and blocks the binding of PD-L1 to the PD-1 and CD80 receptors
- ORR, durvalumab monotherapy (EGFRm NSCLC): 9.8%

Substance: oleclumab: human immunoglobulin G1 lambda mAb that selectively binds to and inhibits the ectonucleotidase activity of CD73; VL SEQ ID NO: 1, VH SEQ ID NO: 2
- effects on safety pharmacology endpoints (ECGs, blood pressure, behavioral examinations) ([1]; cynomolgus monkey, in vivo): no oleclumab-related effects
- AUC0-168.5hr [1, 9]: 834,000 μg·hr/mL
- Cmax [1, 9]: 11,000 μg/mL
- no-observed-adverse-effect level (NOAEL) ([1]; cynomolgus monkeys, highest dose tested): 300.7 mg/kg/dose
- T cell responses to ex vivo KLH stimulation (IFN-γ, IL-2 ELISPOT of PBMC) [2]: did not vary with oleclumab treatment; also recorded: did not increase
- anti-KLH IgM and IgG antibody responses (KLH TDAR) [2]: did not show dose-dependent increase; also recorded: did not enhance
- responses to exogenous antigen (KLH) [2]: did not enhance responses
- IgG titers to EBV gp125 and CMV gB [3]: did not vary with oleclumab treatment
- T cell responses to EBV BZLF1 and inactivated human CMV [3]: did not vary consistently with oleclumab treatment
- cytokine release [4]: did not induce cytokine release
- CD73 staining tumor cells by IHC (CD73 [5]; 40 mg/kg dose, 20 days after treatment initiation): decrease in CD73 staining tumor cells
- total CD4 and CD8 cells (CD73 [5]; human peripheral blood, across all doses): without a concomitant decrease
- CD73 enzymatic activity in tumor microenvironment (CD73 [5]; human tumor staining): inhibited CD73 enzymatic activity
- CD73 surface expression on peripheral T cells (MFI, percent CD73+ CD4 and CD8 cells) (CD73 [5]; across all doses): decreased CD73 on peripheral T cells
- CD73 surface expression on peripheral T cells (MFI, percent CD73+ CD4 and CD8 cells) (CD73 [5]; across all doses, listed as Oleclumab): decreased CD73 surface expression
- free serum soluble CD73 levels (CD73 [5]; majority of subjects at all times after the first dose, limit of detection): < 0.25 ng/mL
- patients with decreased tumoral CD73 expression (CD73 [5]; oleclumab alone, patients who expressed >5% 2+/3+ CD73 at baseline): 5/9
- CD8+ TILs (CD73 [5]; samples with decreased tumoral CD73): increasing CD8+ TILs in all 5 samples
- no-observed-adverse-effect level (NOAEL) ([6]; CD-1 mice, highest dose tested): 200 mg/kg/dose
- AUC0-96hr ([6]; mouse, in vivo, 200 mg/kg): 229,000 μg·hr/mL
- Cmax ([6]; mouse, in vivo, 200 mg/kg): 6,200 μg/mL
- tissue cross reactivity staining (human tissue panel): staining with oleclumab was observed in multiple cell types
- serum exposure target (CD73 [7]): 52 µg/mL
- anti-drug antibodies (ADAs) [8]: No ADAs were detected
- estimated effective half-life in the dosing duration [8]: ~13 days
- serum concentration expected to saturate >99% CD73 [8]: above 40 μg/mL
- serum exposures alone versus in combination with durvalumab ([8]; 5 to 40 mg/kg Q2W): similar
- increase of Ctrough with dose ([8]; from oleclumab 5 to 10 mg/kg): more than proportional
- increase of Ctrough with dose ([8]; from oleclumab 10 to 40 mg/kg): approximately dose proportional
- PK linearity at lowest dose ([8]; oleclumab 5 mg/kg Q2W, monotherapy and combination cohorts): nonlinear PK
- PK linearity at higher doses ([8]; oleclumab 10 mg/kg and higher Q2W): Linear PK

Reference: patent US20200317803A1, “ANTI-CD73, ANTI-PD-L1 ANTIBODIES AND CHEMOTHERAPY FOR TREATING TUMORS” (MEDIMMUNE, LLC, priority 2019, published 2020)
